Here are results for four substances from publication PMC8882101.

The target of experiment [1] is Cry1Ia38 protoxin (Bacillus thuringiensis (strain IE-1)). The experiment in a line: SDS-PAGE of samples heated at 50 °C, Western blot; 5 µg Cry1Ia protein incubated with 2 µg O. nubilalis BBMV in 50 µl carbonate buffer pH 10.5 at 37 °C (5-30 min); BBMV pellet heated at 50 °C for 3 min, 10% SDS-PAGE, polyclonal anti-Cry1Ia. Background: Immunoblotting shows a protein as a band on a membrane.

Experiment [2] shares this target. The experiment in a line: SDS-PAGE of samples heated at 50 °C, Western blot; control without BBMV: Cry1Ia protein incubated in carbonate buffer pH 10.5 at 37 °C, sample heated at 50 °C for 3 min, 10% SDS-PAGE, polyclonal anti-Cry1Ia.
The target is the same in experiment [3]. The experiment can be described thus: SEC; Superdex-200 10/300 GL, carbonate buffer (50 mM Na2CO3, 100 mM NaCl) pH 10.5; oligomeric state from the molecular weight of the eluted peaks against standards.
Experiment [4] has as its target fully MJ activated Cry1Ia toxin (Bacillus thuringiensis (strain IE-1)). The description is as above.
Experiment [5] concerns the target fully trypsin activated Cry1Ia toxin (Bacillus thuringiensis (strain IE-1)). Described as above.
Experiment [6] addresses partially processed Cry1Ia protoxin (~67 kDa intermediate fragment) (Bacillus thuringiensis (strain IE-1)). The experiment can be described thus: SDS-PAGE of samples heated at 50 °C, Western blot; 5 µg Cry1Ia protein incubated with 2 µg O. nubilalis BBMV in 50 µl carbonate buffer pH 10.5 at 37 °C (5-30 min); BBMV pellet heated at 50 °C for 3 min, 10% SDS-PAGE, polyclonal anti-Cry1Ia.

As to Cry1Ia38 protoxin (natural protein), the stoichiometry N in experiment [1], in experiment [2] and in experiment [3] was 2 each time.
Take “fully MJ activated Cry1Ia toxin (domain or fragment)”: in experiment [4], the stoichiometry N (as a rule, a count of units in the complex or per binding partner) stood at 2.
“fully trypsin activated Cry1Ia toxin (domain or fragment)” had a stoichiometry N in experiment [5] of 2.
“partially processed Cry1Ia protoxin (~67 kDa intermediate fragment) (domain or fragment)” came in with a stoichiometry N in experiment [6] of 2.
